Assay: label from the status in PepcDB records

Sequence | protein production
MPAPLSIVIPTLQAESSLPRLLEALIEGLPNGLIREVIVSDGGSQDATRAIAEAAGAQVLNGPPSRGGQLRHGCDAARGDWLLVLHADTLPDPGWAGVVADHIAAREDAACFRLAFRARGPGAAWVAGWANLRTRLFGLPYGDQGLLIRRRDYQTAGGYPDQLLMEDVHLVRALSRAPVLLPHRALTGAERYLRSGWLRRGARNLWTLMRYFAGTDPEALARAYRRLEHHHHHH | failed
MECAEKVEAEIPGQAGRRAGKPSRTYYLEVYGCSLSEFDALIMASRLEEAGYRRVARPEDADVILVNTCAVRLDTEQRIAERLEKLRLQLPDRKYVVAGCLVKARPGLVARLVPEASLLAPQAVERVLDAVDALESGRRLVVLDGRRDTRSMPQLPITDAVVTVMIQEGCLGDCSFCITKVARRQVRSYSPRVIVERVREAVEKGAREIRLTGTDVAVYGVDLPGKPNLADLVAAILEKVEGDYRIRVGMMTPDQVEPYLDSLLDVYRDERVYKYFHLPVQSGDDEVLKIMKRNYTVSEYKAIHRRIKSRFPDAMIATDIIVGHPGETWEAFWNTVRLVEELRFEKVHLAQYSLRPHTEAASMEQVPDSVKKERSRILGKIVAEIGLEINGSYVGRRVRALVTERSWREGSMTGRLDNYTPIILPYEERAMGRWVYAEVEEATFFDLRSSKFEPAPLEHHHHHH | failed
MVWGTFLKNKKPYSIKRQLTLSVGLLVSALLLISLYFSFQSAKHEVEEVYDARLGQSAKLMLLTLSISTETDTLANHRELFDQWMKNIDSLAKSDEDKATKFGHPYEQNLVFQFYRDNKLIWSSTPNLRSLSSSFYNNGYADITKDGVQWRTFQLSLPQTEHENEYVVVAEKQKIRKEIIHEIALSTSIEQLLLLPTLLLLLFWLIDRYFRPINDLRTAITQRNVHRLDRIHVTDNTTELAPLVEALNSLLSELEQAWQREKRFTRAAAHELKTPLTILRLNVENALESNDPEQLRGDLHNILQGIERTDRLIHQLLTLAKVDSLSERVFDNVELTPLLQTVVADLAPLALRQDQDISLSPAEVALSGDKMLLEVLFRNLVDNAIRYSGAHSEIQVSVQENRNAIKILISDTGPEIPQETRERIFEQFYRGHSEKGDGAGLGMSICKDIATLHSAIIELIPRENGKNTFVVAFPKH | failed
MISSKNGAAMISRPVFLSDRVDEVFSRKLDLSVSSSSSSSLLQQFNKTHEGDDDARLALAHQLYKGGDFKQALEHSNMVYQRNPLRTDNLLLIGAIYYQLQEYDMCIARNEEALRIQPQFAECYGNMANAWKEKGDTDRAIRYYLIAIELRPNFADAWSNLASAYMRKGRLSEATQCCQQALSLNPLLVDAHSNLGNLMKAQGLIHEAYSCYLEAVRIQPTFAIAWSNLAGLFMESGDLNRALQYYKEAVKLKPAFPDAYLNLGNVYKALGRPTEAIMCYQHALQMRPNSAMAFGNIASIYYEQGQLDLAIRHYKQALSRDPRFLEAYNNLGNALKDIGRVDEAVRCYNQCLALQPNHPQAMANLGNIYMEWNMMGPASSLFKATLAVTTGLSAPFNNLAIIYKQQGNYSDAISCYNEVLRIDPLAADALVNRGNTYKEIGRVTEAIQDYMHAINFRPTMAEAHANLASAYKDSGHVEAAITSYKQALLLRPDFPEATCNLLHTLQCVCCWEDRSKMFAEVESIIRRQINMSVLPSVQPFHAIAYPIDPILALEISRKYAAHCSIIASRFGLPPFTHPAGLPVKREGGFKRLRIGYVSSDFGNHPLSHLMGSVFGMHNRENVEVFCYALSANDNTEWRQRIQSEAEHFLDVSAMSSDAIAKIINQDKIQILINLNGYTKGARNEIFAMQPAPIQVSYMGFPGTTGATYIDYLVTDEFVSPLQYAHIYSEKLVHLPHCYFVNDYKQKNQDVLDPNSKPKRSDYGLPEDKFIFACFNQLYKMDPEIVNTWCNILKRVPNSALWLLRFPAAGEMRFRTYAAAQGVQPDQIIFTDVAMKSEHIRRSVLADVILDTPLCNGHTTGTDVLWAGVPMITLPLEKMATRVAGSLCLATGLGHGMIVNSLEEYEEKAVSLALNKPKLQALTKELRASRLTCPLFDTMRWVKNLERSYFKMWNLHCSGQQPQHFKVLENDLEFPHDR | failed
MASSDRGTSTLQGWHALQTLWRGDQRSVIQGLPHSQLAPAWQLLLLGDGSPTRHLQLLTGEPTAVDVIEMAPIADQDDGAPPPIRAIAGPRLRRQVWLRTASGQRLAYATSWWTQQRVDAYLRDRAQPIWANLADLRTELYRDIQGVEYGDSAALSEAFGQTGPFWGRYYLFWHQGQPLTLIYEVFSPAIATYLGPSTPQPVV | failed
MLLSKKSEYKTLSTVEHPQYIVFCDFDETYFPHTIDEQKQQDIYELEDYLEQKSKDGELIIGWVTGSSIESILDKMGRGKFRYFPHFIASDLGTEITYFSEHNFGQQDNKWNSRINEGFSKEKVEKLVKQLHENHNILLNPQTQLGKSRYKHNFYYQEQDEINDKKNLLAIEKICEEYGVSVNINRCNPLAGDPEDSYDVDFIPIGTGKNEIVTFMLEKYNLNTERAIAFGDSGNDVRMLQTVGNGYLLKNATQEAKNLHNLITDSEYSKGITNTLKKLIGFMRRK | not failed
MNHLKKLVSILICTLLIVSLLPFSVWADSQERDGTDVEEITTKEKVTQETTSNETTSEPLKGTTVNKAINAKSFPTGNYSGDFSINSQKDVIESGQTVNYNIYLKITGPNTRYQNAKLVINLPKNGEFNQSLNELKIAGATPSYNKTTRQLVYTYQTLNSGVVDKVILKMTTKNGYTPNGTKLVVTGELSADNLSEKVTEQAETTVNATATTALSNDFTKVENSINNNPSQGDIGIWSFNLNIPKKSTGSLFMEEGKKIVIEYTLADKLDYLGVAGDTPEPTKVEGQKLTWEIAAPTYLEQEKANSLLNKTFQIRTFFQPTIPNFATVENKAVATTNFVTLTDSIVDTSKASVSVSASDPATIPPTIGSVYAPAHRGPVDANWGIATVTGNPDIKVYDTAKLGFSLMLNSAMNDSPWYDFLYYDAYYNIDDNLNLDYFRSGDFYFKPNVNYPGWAQLKKSPKYNLLVKYDGDTDWTTLKEDVELSKMYSRKDLGIPDDKHVSKVWLHFTYAPAGMYAADLSFFTTVKEGYVGEVRNSTQINMYGADSQDYIHYYDDTNPWPEAWKNYAGDRTAQIIPQPTGKNKFVQGSVVFDDTDGNLINIGDNSISVNLESNKASISRLKGPFEAMVLLPSGVKMKNTEQNGFKVTVLNENYQNAGRQLLKVKWDKKTLLPAEKLTAKINVSVAKDTPSNMTVEMFGFLQDTDFNVPEVSGTPTISDTKMEIDSNDINQNGNSEESRITSGNHYILNTSNHLKISKKAKGNRDKEYSGLANATTNSIVSYQLSLENDSDEKIANMVLMDVLPSENDLGITDNSERGSKFNLALTKAVEVPKEWKDKVEVTYSTAKNPKRAGILDKHTIYPIGTEPLVDNTEATQADWLTASEVKDWSNIYSFKIELKEGIEWIPGKSMKIQFDLKTPKKNQIDKTLLKQQTKKEDRAAWNSFAVAVNNSQVIEPAQVGVALDDSVAPVTVQYVDQNHKQIASPETLTGAYGEKFTAKQKKINNYSLVKIPANVSGTFNEKAQTITFIYQKVTAGRIIVNYVDKNGEKIADSIVLNGKLNSSYTTSSKKISGYKLYQTPKNATGKFLNTSQTVTYVYERTSNLSISSSNKGTENVKKLAKLPHTGDSTTTNLWVIIGLFMLSGAFVIMKKR | failed
MIAAVAVFALTYVAVAAGRFPYLSLDRPAAALLGAVLMVALGVLTPAEGGAAVNGETLGLLLGMMVLTAYLGEAGFFRWASWRVLRAAGTPRTLLWGVVFTAGALSALLVNDTVCLMMTPLVLRMVDDADLPPLPYLLAVAFGSNAGSAATLTGNPQNMIVGTLSGIGYGRFAAALALPALASLLLVAALLHALFRRALPRGPLAGGRPAAPAVDRALLAKALGALALAVTGFLLGLELAWTALFAAALCMAIAGRAPREALQRVDWPLLVFFAGLFVVVAGIGRAGVTERMYQAVAPLLGADPARQSAVFGLFSIAASQVVSNVPFVILAGEWIPRLADPTLLWLATALCATLAGNLTIVGSVANVIVLELAGSRGRIGFWRFFRVGAVVTAATVAAGLGILLLEHRLGLIG | failed
MTTSKVTYQGDLRTSAIHLQSNNEIITDAPVDNQGKGEAFSPTDLLATSLASCMLTIIGIKARDMEIDIAGTTAEVTKVMAADPRRVSEVHIAITFNQELDDKTQKIFYNTALTCPVAKSIHPDIFQKVIIHSKSY | not failed
MDQTIHHQIQQALHFRTAVRVYKEEKISDEDLALILDAAWLSPSSIGLEGWRFVVLDNKPIKEEIKPFAWGAQYQLETASHFILLIAEKHARYDSPAIKNSLLRRGIKEGDGLNSRLKLYESFQKEDMDMADNPRALFDWTAKQTYIALGNMMMTAALLGIDTCPIEGFHYDKVNHILAKHNVIDLEKEGIASMLSLGYRLRDPKHAQVRKPKEEVISVVK | not failed

Source: a protein production outcome set (Wang et al. 2014)
